From patent US20150210767A1 (GlaxoSmithKline, published 2015)

T1: human TNFR1 on human umbilical vein endothelial cells (HUVECs) (human, UniProt P19438 30-455)
T1 sequence (looked up): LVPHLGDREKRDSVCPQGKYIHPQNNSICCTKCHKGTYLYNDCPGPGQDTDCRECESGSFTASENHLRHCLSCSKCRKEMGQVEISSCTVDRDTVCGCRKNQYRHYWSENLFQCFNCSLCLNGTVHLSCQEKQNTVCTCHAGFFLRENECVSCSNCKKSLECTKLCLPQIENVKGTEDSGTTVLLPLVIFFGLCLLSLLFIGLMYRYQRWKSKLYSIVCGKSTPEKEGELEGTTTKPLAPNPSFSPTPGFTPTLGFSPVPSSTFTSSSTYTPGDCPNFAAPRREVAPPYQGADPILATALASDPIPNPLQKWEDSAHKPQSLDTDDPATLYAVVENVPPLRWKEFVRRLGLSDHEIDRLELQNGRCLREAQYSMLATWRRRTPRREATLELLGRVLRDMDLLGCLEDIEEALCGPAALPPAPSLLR

T2: biotinylated recombinant human soluble TNFR1 (human, UniProt P19438 30-211, biotinylated (EZ-Link Sulfo-NHS-LC-Biotin), sites not stated)
T2 construct: extracellular domain; Captured on a streptavidin BIAcore chip; also called human sTNFR1; sTNFR1
T2 sequence (looked up): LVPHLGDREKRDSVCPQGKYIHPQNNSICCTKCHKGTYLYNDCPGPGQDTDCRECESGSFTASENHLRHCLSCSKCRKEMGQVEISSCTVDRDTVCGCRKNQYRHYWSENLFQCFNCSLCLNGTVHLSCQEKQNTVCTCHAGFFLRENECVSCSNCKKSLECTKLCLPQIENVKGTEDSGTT


Columns and labels:
[1] = biological target: T1, human TNFR1 on human umbilical vein …; test: cell-based or functional assay
[2] = biological target: T2, biotinylated recombinant human soluble …; test: BIAcore (SPR), biotinylated human TNFR1 on streptavidin chip, fusion injected, mean of two experiments ± SD
Experimental: The affinity of the anti-TNFR1/AlbudAb fusions for human TNFR1 was determined by BIAcore. Briefly, the anti-TNFR1 molecules were injected over a streptavidin BIAcore chip on which biotinylated, human TNFR1 had been immobilised. Association and dissociation were determined at different concentrations of injected anti-TNFR1. […] The affinity for human TNFR1 as determined by BIAcore of the anti-TNFR1/AlbudAb fusion is slightly higher to that determined for the single anti-TNFR1 dAb used in each of the combination constructs.
The binding affinities for binding to recombinant human TNFR1 were assessed by BIAcore™ analysis. Analysis was carried out using Streptavidin coated (SA) chips (BIAcore, cat no. BR-1000-32). An SA chip was coated at low density using biotinylated hTNFR1. Examined molecules were injected over this surface at […] concentrations, i.e. 32, 16 (twice), 8, 4, 2, 1 and 0.5 nM, in random order using a flow rate of 50 μl/min. Between individual injections the surface was regenerated back to baseline using 10 mM glycine pH 2.0. Data were corrected for instrument artefacts using double referencing. Experiments were carried out on a BIAcore™ 3000 machine and data were analysed using the BIAevaluation software version 4.1, kₒₙ and koff were simultaneously fitted using 1:1 Langmuir binding model. For fitting purposes, the concentration range 1-32 nM was used for the monomers, while 0.5-16 nM was used for the AlbudAb fusion molecules. The binding data fitted well to the 1:1 model for all tested molecules. All KD values were calculated from kₒₙ and koff rates. BIAcore™ runs were carried out at 25° C.

[3] = biological target: T2, biotinylated recombinant human soluble …; test: BIAcore (SPR), biotinylated human sTNFR1 on SA chip, dAb injected
Experimental: (§1) To confirm the increase in accelerated stability four novel dAbs were also characterised according to the more extensive protocol described in example 1. In this protocol, the dAbs are incubated up to 48 h at 40° C., centrifuged and the remaining dAb in solution quantified using OD₂₈₀. […] To verify that the increase in stability is not at the expense of functional anti-TNFR1 activity of the dAb, the binding affinity to TNFR1 of the dAbs was determined by BIAcore, using biotinylated TNFR1 captured on a BIAcore SA chip. […] Therefore, these dAbs combine an increase in accelerated stability without compromising much on the affinity of the dAb for TNFR1.
TABLE 7 Accelerated stability and affinity for human sTNFR1 for novel anti-TNFR1 dAbs. Purified dAb was incubated at 1 mg/ml in PBS at 40° C. for the indicated amounts of time. After that time, the percentage of residual protein in solution was determined by OD280 determination. Affinity for sTNFR1 was determined by BIAcore using coated sTNFR1 and injecting the dAb as described.

[4] = biological target: T2, biotinylated recombinant human soluble …; test: BIAcore (SPR), biotinylated TNFR1 on SA chip; reference value of DOM1h-574-156 (150 pM) described previously
Experimental: as §1

Mean EC50, inhibition of TNF-alpha-induced VCAM-1 expression in the HUVEC cell assay [1] [nM] | Kd [2] [nM] | Kd [3] [nM] | fold change of affinity against the parent dAb DOM1h-574-156 [4] [fold] | Binder
4.83 | 0.18 |  |  | DMS5544 (bispecific antibody, Single-chain genetic fusion of the anti-TNFR1 VH dAb DOM1h-574-188, linker AST and the anti-serum albumin Vk dAb DOM7h-11-3; also called DOM1h-574-188 - Ala-Ser-Thr - DOM7h-11-3; anti-TNFR1/AlbudAb fusion) EVQLLESGGGLVQPGGSLRLSCAASGFTFDKYSMGWVRQAPGKGLEWVSQISDTADRTYYAHSVKGRFTISRDNSKNTLYLQMNSLRAEDTAVYYCAIYTGRWVPFEYWGQGTLVTVSSASTDIQMTQSPSSLSASVGDRVTITCRASRPIGTTLSWYQQKPGKAPKLLILWNSRLQSGVPSRFSGSGSGTDFTLTISSLQPEDFATYYCAQAGTHPTTFGQGTKVEIKR
6.23 | 0.202 |  |  | DMS5542 (bispecific antibody, Single-chain genetic fusion of the anti-TNFR1 VH dAb DOM1h-574-214, linker AST and the anti-serum albumin Vk dAb DOM7h-11-3; also called DOM1h-574-214 - Ala-Ser-Thr - DOM7h-11-3; anti-TNFR1/AlbudAb fusion) EVQLLESGGGLVQPGGSLRLSCAASGFTFSKYSMGWVRQAPGKGLEWVSQISDTADRTYYADSVKGRFTISRDNSKNTLYLQMNSLRAEDTAVYYCAIYTGRWVPFEYWGQGTLVTVSSASTDIQMTQSPSSLSASVGDRVTITCRASRPIGTTLSWYQQKPGKAPKLLILWNSRLQSGVPSRFSGSGSGTDFTLTISSLQPEDFATYYCAQAGTHPTTFGQGTKVEIKR
5.79 | 0.277 |  |  | DMS5535 (bispecific antibody, Single-chain genetic fusion of the anti-TNFR1 VH dAb DOM1h-574-196, linker AST and the anti-serum albumin Vk dAb DOM7h-11-3; also called DOM1h-574-196 - Ala-Ser-Thr - DOM7h-11-3; anti-TNFR1/AlbudAb fusion) EVQLLESGGGLVQPGGSLRLSCAASGFTFSKYSMGWVRQAPGKGLEWVSQISDTADRTYYAHSVKGRFTISRDNSKNTLYLQMNSLRAEDTAVYYCAIYTGRWEPFEYWGQGTLVTVSSASTDIQMTQSPSSLSASVGDRVTITCRASRPIGTTLSWYQQKPGKAPKLLILWNSRLQSGVPSRFSGSGSGTDFTLTISSLQPEDFATYYCAQAGTHPTTFGQGTKVEIKR
 |  | 0.35 | ≤ 4 | DOM1h-574-188 (VHH, Human VH immunoglobulin single variable domain (dAb), not camelid; also called anti-TNFR1 dAb DOM1h-574-188) VHH: EVQLLESGGGLVQPGGSLRLSCAASGFTFDKYSMGWVRQAPGKGLEWVSQISDTADRTYYAHSVKGRFTISRDNSKNTLYLQMNSLRAEDTAVYYCAIYTGRWVPFEYWGQGTLVTVSS
 |  | 0.47 | ≤ 4 | DOM1h-574-196 (VHH, Human VH immunoglobulin single variable domain (dAb), not camelid; Monomer cloned in pDOM13 for expression in E. coli; also called anti-TNFR1 dAb DOM1h-574-196) VHH: EVQLLESGGGLVQPGGSLRLSCAASGFTFSKYSMGWVRQAPGKGLEWVSQISDTADRTYYAHSVKGRFTISRDNSKNTLYLQMNSLRAEDTAVYYCAIYTGRWEPFEYWGQGTLVTVSS
 |  | 0.58 | ≤ 4 | DOM1h-574-214 (VHH, Human VH immunoglobulin single variable domain (dAb), not camelid; Monomer cloned in pDOM13 for expression in E. coli; also called anti-TNFR1 dAb DOM1h-574-214) VHH: EVQLLESGGGLVQPGGSLRLSCAASGFTFSKYSMGWVRQAPGKGLEWVSQISDTADRTYYADSVKGRFTISRDNSKNTLYLQMNSLRAEDTAVYYCAIYTGRWVPFEYWGQGTLVTVSS
